Drawing on patent US20040141968A1, this text covers koff, kon and Kd for one substance.

The target in assay [1] is recombinant soluble CMV envelope glycoprotein B (human cytomegalovirus) (UniProt P13201). As to the kind of experiment: SPR (Biacore); DC-SIGN CRD injected over immobilised CMV gB; Langmuir fit, average. Background: Surface plasmon resonance follows binding to a sensor surface in real time, without labels.
Assay [2] has the same target. As to the kind of experiment: SPR (Biacore); DC-SIGN CRD injected over immobilised CMV gB; from koff/kon.

Sequence of recombinant soluble CRD of DC-SIGN (amino acids 254-404) (Q9NNX6 254-404 limits assumed): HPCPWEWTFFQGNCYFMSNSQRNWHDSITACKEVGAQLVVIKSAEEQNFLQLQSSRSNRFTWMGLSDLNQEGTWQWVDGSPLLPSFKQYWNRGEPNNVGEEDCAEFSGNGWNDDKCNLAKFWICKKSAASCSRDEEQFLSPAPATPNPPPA

In general, koff refers to the rate constant with which the complex falls apart. Usually kon stands for the rate constant with which the complex forms. As a reminder, the Kd is a measure of binding affinity in units of concentration. For the substance “recombinant soluble CRD of DC-SIGN (amino acids 254-404) (from UniProt Q9NNX6 254-404) (receptor)”, in assay [1], the koff is 0.00126 s⁻¹ and the kon turned out to be 4400 M⁻¹ s⁻¹. In addition, the Kd in assay [2] was determined as 290 nM.
